This note sets out measurements from the nanobody polyreactivity screen of Harvey et al. (2022).

The data set in a line: yeast display, Sf9 membrane polyspecificity reagent, FACS + sequencing; frameworks hold sequencing errors. An outline of the steps: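 Genes from sorted yeast were amplified by colony PCR, read by MiSeq 2 × 250 sequencing and filtered on CDR length. These cells carried a synthetic nanobody library in Saccharomyces cerevisiae BJ5465 and were sorted by FACS into low and high (top ~1%) gates on anti-HA and streptavidin fluorescence. Polyreactivity is labelled according to the gate of origin.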
In the case of “QVQLVESGGGLVQAGGSLRLSCAASGSTFQSYAMGWYRQAPWKERELVAAITTTGTRTYYADSVKGRFTISRDNAKNTVYLQMNSLKPEDTAVYYCNAQRLQAHRTSRRYGYWGQGTQVTVSS”, the “polyreactivity (PSR sort gate)” value was “high polyreactivity”.

As for “QVQLVESGGGLVQAGGSLRLSCAASGSTFQTNAMGWYRQAPGKERELVAAINSGGGTNYADSVKGRFTFSRDNAKYTVYLQMNSLKPEDSAVYYCAAAYFDFWGWLHDYWGQGTQVTVSS”, the “polyreactivity (PSR sort gate)” value was “low polyreactivity”.

As to “QVQLVESGGGLVQAGGSLRLSCAASGSTFQTYAMGWYRQAPGKERELLAAINWRSGSTYYADSVKGRFTISRDNAKNTVYLQMNSLTPEDTAVSYCAAELDFSPGYYYLYDYWGQGTQVTVSS”, the “polyreactivity (PSR sort gate)” value is listed as “low polyreactivity”.

As for “QVQLVESGGGLVQAGGSLRLSCAASGSTFQTYAMGWYRQAPGKERELVAAITWRGGSTYYADSVKGRFTISRDNAKTTVYLQMNSLKPEDTAVYSCAAKWHGAHDHRAAYESWGQGTQVTVSS”, the “polyreactivity (PSR sort gate)” value is “low polyreactivity”.

As for “QVQLVESGGGLVQAGGSLRLSCAASGSTFQVNAMGWYRQAPGKERELVASISGGSSTNYADSVKGRFTISRDNAKNTVYLQMNSLKPEDTAVYYCAAYYLSGLRVAYDYWGQGTQVTVSS”, the “polyreactivity (PSR sort gate)” value is “low polyreactivity”.

For the sequence “QVQLVESGGGLVQAGGSLRLSCAASGSTFQVYAMGLYRQAPGKERELVASITSGGSTYADSVKGRFTISRDNAKNTVYLQINSLKPEDTAVYYCAAGGYFYPYTYDYWGQGTQVTVSS”, the “polyreactivity (PSR sort gate)” value was “low polyreactivity”.

For the sequence “QVQLVESGGGLVQAGGSLRLSCAASGSTFQVYAMGWYRQAPGKERELVATIRGVGSTNYADSVKGRFTISRDNAKKTVYLQMNSLKPEDTAVYYCNAAVSQFSHRWRRRITFDYWGQGTQVTVSS”, the “polyreactivity (PSR sort gate)” value is “low polyreactivity”.

On to “QVQLVESGGGLVQAGGSLRLSCAASGSTFQYNAMGWYRQAPGKERELVAVITRRGGRTYYADSVKGRFTISRDNAKNTVYLQMNSLKPEDTAVYYCAAYYDYTHRFYYWGQGTQVTVSS”, for which the “polyreactivity (PSR sort gate)” value is reported as “high polyreactivity”.

Regarding “QVQLVESGGGLVQAGGSLRLSCAASGSTFQYNVMGWSRQAPGKERELVAAIRQSGSTTYYADSVKGRFTISRDNAKNTVYLQMNSLKPEDSAVYYCAKRYHNWANSRMDYWGQGSQVTVSS”, the “polyreactivity (PSR sort gate)” value is recorded as “low polyreactivity”.

“QVQLVESGGGLVQAGGSLRLSCAASGSTFQYNVMGWYRQAPGKERELVAAISRSGTRTSYADSVKGRFTISRDYAKNTVYLQMNTLKPEDTAVYYCAAVVYHRYYSGYYYWGQGTQVTVST”: the “polyreactivity (PSR sort gate)” value is “high polyreactivity”.

“QVQLVESGGGLVQAGGSLRLSCAASGSTFQYYAMGWYRQAPGKERELVAAIRTGGSTNYADSVKGRFTISRDNAKNTFYLQMNSLKPEDTAVYYCAKRSLRSYRMNYWGQGTQVTVSS”: the “polyreactivity (PSR sort gate)” value was “high polyreactivity”.

Turning to “QVQLVESGGGLVQAGGSLRLSCAASGSTFQYYAMGWYRQAPGKERELVAAISSSGGSTYYADSVKGRFTISRDNAKNTVYLQMNSLKPEDTAVYYCAKRFRRFTYTRDYWGQGTQVTVSS”, the “polyreactivity (PSR sort gate)” value is “high polyreactivity”.

With “QVQLVESGGGLVQAGGSLRLSCAASGSTFQYYAMGWYRQAPGKERELVAAISSSGGSTYYADSVKGRFTISRDYAKNTVYFQMNSQKPEDTAVYYCAKRFRRFTYTRDYWGQGTQVTVTS”, the “polyreactivity (PSR sort gate)” value is “high polyreactivity”.

As to “QVQLVESGGGLVQAGGSLRLSCAASGSTFRANAMGWYRQAPGTERELVAVISSGGRTYYADSVKGRFTMSRDNAKTTVYLQMNSLKPEDTAVYYCAKDDYSVWYYYDYDYWGQGTQVTVSS”, the “polyreactivity (PSR sort gate)” value is given as “high polyreactivity”.

On to “QVQLVESGGGLVQAGGSLRLSCAASGSTFRAYAMGWYRQAPGKEREFVADISWSGGSTYYADSVKGRFTISRDNAKNTVYLQMNSLKPEDTAVYYCAAEAAPLIIVTYDYWGQGTQVTVSS”, for which the “polyreactivity (PSR sort gate)” value is listed as “low polyreactivity”.

For “QVQLVESGGGLVQAGGSLRLSCAASGSTFREYTMGWYRQAPGKERELVAAITNSGGSTYYADSVKGRFTISRDNAKNTVYLQMNSLKPEDTAVYYCAAEVGIVDYDYWGQGTQVTVSS”, the “polyreactivity (PSR sort gate)” value is reported as “low polyreactivity”.

For “QVQLVESGGGLVQAGGSLRLSCAASGSTFRFNAMGWYRQAPGKERELVAAISGSGGSTYYADSVKGRFTISRDNAKNTVYLQMNSLKPEDTAVYYCAASASSRSYFKSYYWGQGTQVTVSS”, the “polyreactivity (PSR sort gate)” value is given as “high polyreactivity”.

For “QVQLVESGGGLVQAGGSLRLSCAASGSTFRFNAMGWYSQAPGKERELVAAITGIGGITYYADSVKGRFTISRDNAKNTVYLQMNSLKPEDTAVYYCNAVAARYSVRNGYSTHYDYWGQGTQVTVSS”, the “polyreactivity (PSR sort gate)” value is on record as “high polyreactivity”.

Turning to “QVQLVESGGGLVQAGGSLRLSCAASGSTFRFYAMGWYRQAPGKERELLAAINGSGGSTYYADSVKGRFTISRDKAKSTVNLQMNSLKPEDTAVYYSAVLYRYGYDYWGQGTQVTVSS”, the “polyreactivity (PSR sort gate)” value is “low polyreactivity”.

Take “QVQLVESGGGLVQAGGSLRLSCAASGSTFRGNAMGWYRQAPGKERELVAAISRRGGSTNYADSVKGRFTISRDNAKNTVYLQMNSLKPEDTAVYYCNKGDYRSAYRHIEYGYWGQGTQVTVSS”: the “polyreactivity (PSR sort gate)” value is on record as “low polyreactivity”.

Turning to “QVQLVESGGGLVQAGGSLRLSCAASGSTFRGYALGWYRQAPGKERELVATISGSDGTTYYADSVKGRFTISRDNAKNTVYLQMNSLKPEDTAVYYCAAGETFEMYYWGQGTQVTVSS”, the “polyreactivity (PSR sort gate)” value is “low polyreactivity”.

In the case of “QVQLVESGGGLVQAGGSLRLSCAASGSTFRGYAMGWYRQAPGKERELVAAISSRGARTHYADSVKGRFTISRDNAKNTVYLQMNSLKPEDTAVYYCNKRQVFVSTGEYELDYWGQGTQVTVSS”, the “polyreactivity (PSR sort gate)” value is given as “low polyreactivity”.

Take “QVQLVESGGGLVQAGGSLRLSCAASGSTFRGYAMGWYRQAPGKERELVAAISWSGVSTYYADSVKGRFTISRDNAKNTVYLQMNSLKPEDTAVYYCAAGYSSAYLRFGYWGQGTQVTVSS”: the “polyreactivity (PSR sort gate)” value was “low polyreactivity”.

Turning to “QVQLVESGGGLVQAGGSLRLSCAASGSTFRGYAMGWYRQAPGKERELVASISWSGGSTYYADSVKGRFTISRDNAKNTVYLQMNSLKPEDTAVYYCAARKRWRNIRMDYWGQGTQVTVSS”, the “polyreactivity (PSR sort gate)” value is recorded as “high polyreactivity”.

“QVQLVESGGGLVQAGGSLRLSCAASGSTFRGYVMGWYRQAPGKERELVAAITYSGGSTYYADSVKGRFTISRDNAKNTVYLQLNSLKPEDTAVYYGADEIYDSYYEDDYWGQGTQVTVSS”: the “polyreactivity (PSR sort gate)” value was “high polyreactivity”.

In the case of “QVQLVESGGGLVQAGGSLRLSCAASGSTFRHNVMGWYRQAPGKERELVAAISYSGGSTHYADSVKGRFTISRDNAKNTVYLQMNSLKPEDTAVYYCNRYSYDSHFLYPFRGHDYWGQGTQVTVSS”, the “polyreactivity (PSR sort gate)” value is on record as “low polyreactivity”.

“QVQLVESGGGLVQAGGSLRLSCAASGSTFRHYAMGWYRQAPGKERELVAVISWGGTSTYYADSVKGRFTISRDNAKNTVYLQMNSLKPEDTAVYYCAVKYAYPYAGVSAIRYYYWGQGTQVTVSS”: the “polyreactivity (PSR sort gate)” value is listed as “low polyreactivity”.

On to “QVQLVESGGGLVQAGGSLRLSCAASGSTFRINAMGWYRQAPGNERELVAAMSYNGGGTYADSVKGRFTISRDNAKNTVYLQMNSLKPEDTAVSYCAADTYYGQAYTAYTYRLYDYWGEGTQVTVSS”, for which the “polyreactivity (PSR sort gate)” value is on record as “low polyreactivity”.

On to “QVQLVESGGGLVQAGGSLRLSCAASGSTFRIYAMGWYRQAPGREREFVAAITWTGGSTYYADSVKGRFTISRDNAKNTVYLQMNSLKPEDTADYYCAARQLSDYYWGQGTQVTVSS”, for which the “polyreactivity (PSR sort gate)” value is “high polyreactivity”.

As for “QVQLVESGGGLVQAGGSLRLSCAASGSTFRKYAMGWYRQAPGKEREFVAAISSSGGRTYYADSVKGRFTISRDNAKNTVYLQMNSLKPEDTAVYYCNAYFRYSYDYWGQGTQVTVSS”, the “polyreactivity (PSR sort gate)” value was “high polyreactivity”.

As for “QVQLVESGGGLVQAGGSLRLSCAASGSTFRKYTMGWYRQAPGKERELVASISRRGGSTYYADSVKGRFTISRDNAKNTVYLQMNSLKPEDTAVYYCNVTYSQYGYDYWGQGTQVTVSS”, the “polyreactivity (PSR sort gate)” value is on record as “high polyreactivity”.

As for “QVQLVESGGGLVQAGGSLRLSCAASGSTFRLNAMGWYRQARGKEWEFVAAISSRGGSTYYADSVKGRFTISRDNAKNTDYLQMNSLKPEDTAVYYCKAVRSKLIENDYWGQGTQVTVSS”, the “polyreactivity (PSR sort gate)” value is listed as “high polyreactivity”.

In the case of “QVQLVESGGGLVQAGGSLRLSCAASGSTFRLNAMGWYRQSPGKERELVAAISRGGSTNYADSVKGRFTISRDNAKNTVYLQMNSLKPEDTAVYYCATRRSYKYYWGQGTQVTVSS”, the “polyreactivity (PSR sort gate)” value is given as “high polyreactivity”.

As for “QVQLVESGGGLVQAGGSLRLSCAASGSTFRLYAMGWYRQAPGKERELVAAISQRGGSTYYADSVKGRFTISRDNAKNTVYLQMNSLKPEDTAVYYCNTDWYRKWGKPYYYWGQGTQVTVSS”, the “polyreactivity (PSR sort gate)” value is on record as “high polyreactivity”.

As to “QVQLVESGGGLVQAGGSLRLSCAASGSTFRLYTKGWYRQAPGKERELVAAISVSGVSTYYADSVKGRFTISRDNAKNTVYVQMNSLKPEDTAVYYCAKRGYLFLRGSVRVGYNYWGQGTQVTVSS”, the “polyreactivity (PSR sort gate)” value is “low polyreactivity”.

Regarding “QVQLVESGGGLVQAGGSLRLSCAASGSTFRNNAMGWYRQAPGKERELVAAISWIGGDTYYADSVKGRFTISRDNAKNTVYLQMNSLKPEDTAVYYCNRDFVYWPWFKFDYWGQGTQVTVSS”, the “polyreactivity (PSR sort gate)” value is given as “low polyreactivity”.

Take “QVQLVESGGGLVQAGGSLRLSCAASGSTFRNYAMGWYRQAPGKDRELVAAISGSGGRTNYADSVKGRFTISRDNAKTTVYLQMNSLKPEDTAVYYCAASGGRNWWAARNYYWGQGTQVTVSS”: the “polyreactivity (PSR sort gate)” value is given as “low polyreactivity”.

Take “QVQLVESGGGLVQAGGSLRLSCAASGSTFRPNAMGWYRPAPGKDRELVAAISWSGRSTYYADSVKGRFTISRDQAKTTVYLQMNSLTPQDTAVADCAKELYAGRTDTRTRYDYWGQGTQVTVSS”: the “polyreactivity (PSR sort gate)” value is “high polyreactivity”.

Regarding “QVQLVESGGGLVQAGGSLRLSCAASGSTFRPNAMGWYRQAPGKERELVAAISRSGVSTYYADSVKGRFTISRDNAKNTVYLQMNSLQPEDTAVYYCARRYTGRPVLRESWGQGTQVTVSS”, the “polyreactivity (PSR sort gate)” value was “low polyreactivity”.

Take “QVQLVESGGGLVQAGGSLRLSCAASGSTFRQYAMGWYRQAPGKERELVAAIRGRDGSTYYADSVKGGFTISRDNAKYTVYLQMNSLKPEDSAVYYCNVVARGVSPGYDYWGQGTQVTVSS”: the “polyreactivity (PSR sort gate)” value is recorded as “high polyreactivity”.

For the sequence “QVQLVESGGGLVQAGGSLRLSCAASGSTFRRNAMGGYRQAPGKERELVAAITSTDSTYYADSVKGRFTISRDNAKNSVYLQMNSLKPEDTAVYYCAKGYWWGGEMGYWGQGTQVTVSS”, the “polyreactivity (PSR sort gate)” value was “low polyreactivity”.
